Data on 14 molecules can be found in patent publication US20210393776A1 (FABION PHARMACEUTICALS, published 2021).

The target in experiment [1] is T1, recombinant human CD3epsilon/delta Fc(K-H) heterodimer (human).
T1 construct: also called human CD3epsilon/delta knob and hole Fc heterodimer; copies: 1 + 1
Description: ELISA, immobilised antigen, His6-tagged Fab, anti-His6 antibody HRP conjugate, ABTS, OD405.
Description: (§1) Humanized Fab proteins are his6 tagged at the C-terminus of Fd and the Fabs bound to the 96-well plate immobilized antigens were detected using anti his6 tag mouse antibody conjugated with HRP. ABTS was used as substrate and absorptions were measured at 405 nm.
(§2) MAXISORP® plates were used for ELISA binding assays. 50 μl of 1 μg/ml of antigens in 50 mM NaHCO₃were used to coat the plates at 4° C. overnight followed by incubation with 200 μl of 5% dry milk/TBS-0.05% TWEEN®-20 (i.e., polysorbate 20) (MTBS-T)/well. Antibodies were usually diluted in 5% MTBS-T and transferred to antigen coated plates and incubated for 1 hr with gentle shaking at room temperature. Bound antibodies were detected either by streptavidin-HRP (for detecting biotinylated antibodies) or anti-his tag-HRP conjugate (for his tagged antibodies). ABTS™ (i.e., 2,2′-azino-bis(3-ethylbenzothiazoline-6-sulphonic acid) solution in 50 mM citrate buffer was used for detection with OD405 measurement on using a microplate reader (Biotek).

Experiment [2] concerns the target T2, human CD3epsilonAA1-27.Fc (human).
T2 construct: also called recombinant human CD3epsilon N-terminal peptide (aa1-27.Fc fusion); CD3epsilon N-terminal amino acid 1-27 peptide Fc fusion
The experiment is described as above.
Description: as §1, §2

Experiment [3] concerns the target T3, recombinant cyno CD3epsilon/delta Fc(K-H) heterodimer (cynomolgus).
T3 construct: also called cynomolgus CD3epsilon/delta; recombinant cyno CD3epsilon/delta heterodimeric Fc protein; copies: 1 + 1
Put plainly: ELISA, immobilised antigen, His6-tagged Fab, anti-His6 antibody HRP conjugate, ABTS, OD405 [continued) E].
Description: as §1, §2

The target in experiment [4] is T1, recombinant human CD3epsilon/delta …. Put plainly: ELISA, immobilised antigen, His6-tagged Fab, anti-His6 antibody HRP conjugate, ABTS, OD405. This is another data set of the same source.
Description: as §1, §2
In experiment [5] the target is T2, human CD3epsilonAA1-27.Fc. Described as above. The source holds these as a separate data set.
Description: as §1, §2
Experiment [6] has as its target T3, recombinant cyno CD3epsilon/delta …. Description: ELISA, immobilised antigen, His6-tagged Fab, anti-His6 antibody HRP conjugate, ABTS, OD405 [continued) F]. For orientation: ELISA stands for enzyme-linked immunosorbent assay.
Description: as §1, §2
For experiment [7], the target named is T4, full length human EpCAM on CHO cells (human, UniProt P16422 24-314).
T4 construct: CHO cells stably expressing full length human EpCAM; also called hu-EpCAM-FL; human EpCAM-FL
T4 sequence: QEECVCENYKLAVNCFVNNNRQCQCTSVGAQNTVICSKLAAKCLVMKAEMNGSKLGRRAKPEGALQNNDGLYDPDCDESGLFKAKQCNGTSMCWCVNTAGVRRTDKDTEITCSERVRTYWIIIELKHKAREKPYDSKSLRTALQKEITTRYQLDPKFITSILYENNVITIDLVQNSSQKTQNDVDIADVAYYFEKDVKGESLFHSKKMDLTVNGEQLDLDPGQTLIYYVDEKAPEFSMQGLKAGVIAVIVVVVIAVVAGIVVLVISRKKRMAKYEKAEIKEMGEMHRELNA
Description: flow cytometry on CHO cells stably expressing full length human EpCAM, PE detection.
Description: (§3) In general, cells were blocked in 1% BSA/PBS for 1 hr at 4 C and antibodies of interest were diluted into 1% BSA/PBS were added to blocked cells for incubation at 4° C. for 1 hr. after one wash with 1% BSA/PBS, staining procedures vary depending on the availability of antibodies or fluorescent antibody conjugate. In some case, direct fluorescence conjugates were used. In other cases, anti affinity tag antibodies (secondary antibody) were used to incubate with the cells followed by anti-species antibody conjugated with a particular fluorophore. In some other experiments, antibody (or other affinity reagent such as streptavidin) with fluorescence conjugate was used directly as secondary antibody (secondary reagent).

Experiment [8] concerns the target T3, recombinant cyno CD3epsilon/delta …. Description: ELISA, immobilised antigen, biotinylated protein, streptavidin-HRP, ABTS, OD405.
Experiment [9] deals with T2, human CD3epsilonAA1-27.Fc. Described as above.
The target in experiment [10] is T4, full length human EpCAM on CHO cells. Description: flow cytometry on CHO cells stably expressing full length human EpCAM, PE detection. This is another data set of the same source. (In general: A flow cytometer gives signals particle by particle.)
Description: as §3
The target in experiment [11] is T3, recombinant cyno CD3epsilon/delta …. Description: ELISA, immobilised antigen, biotinylated protein, streptavidin-HRP, ABTS, OD405. This is another data set of the same source.
In experiment [12] the target is T2, human CD3epsilonAA1-27.Fc. The experiment is described as above. The source holds these as a separate data set.
The target of experiment [13] is T4, full length human EpCAM on CHO cells. Put plainly: flow cytometry on CHO cells stably expressing full length human EpCAM, PE detection. The source holds these as a separate data set.
Description: as §3

Where a chain is given by its changes, count along the chain named. Where two headings read alike, the source gives them in different places.

T1 sequence (chain, as listed by the source mutant limits assumed, chain 1 of 2): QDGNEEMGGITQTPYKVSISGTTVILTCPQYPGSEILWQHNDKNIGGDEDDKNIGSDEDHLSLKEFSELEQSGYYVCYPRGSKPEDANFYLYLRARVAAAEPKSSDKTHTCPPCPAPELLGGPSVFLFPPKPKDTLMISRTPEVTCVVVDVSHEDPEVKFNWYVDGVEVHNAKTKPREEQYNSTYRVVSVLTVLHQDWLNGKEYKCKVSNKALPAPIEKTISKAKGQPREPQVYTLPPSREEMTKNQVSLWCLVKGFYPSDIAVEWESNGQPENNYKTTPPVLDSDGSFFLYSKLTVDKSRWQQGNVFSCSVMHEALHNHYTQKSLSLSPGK
T1 sequence (chain, as listed by the source mutant limits assumed, chain 2 of 2): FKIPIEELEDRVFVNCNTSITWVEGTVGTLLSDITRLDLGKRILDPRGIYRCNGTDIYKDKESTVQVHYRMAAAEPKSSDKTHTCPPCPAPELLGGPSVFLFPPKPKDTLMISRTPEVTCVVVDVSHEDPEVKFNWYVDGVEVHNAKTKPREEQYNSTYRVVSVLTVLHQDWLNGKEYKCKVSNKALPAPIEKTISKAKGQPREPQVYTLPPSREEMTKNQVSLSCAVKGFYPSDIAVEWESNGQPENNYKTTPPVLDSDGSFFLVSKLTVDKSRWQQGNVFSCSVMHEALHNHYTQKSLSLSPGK

B1: hu-1F3.3 Fab (Fab, V domains shown)
VH: EVQLVESGGGLVQPGGSLRLSCAASGFTFSTYAMNWVRQAPGKGLEWVARIRSKYNNYATYYADSVKDRFTISRDDSKNTLYLQMNSLRAEDTAVYYCARHGNFGNSYVSWFAYWGQGTMVTVSS
VL: QAVVTQEPSLTVSPGGTVTLTCRSSTGAVTTSNYANWVQQKPGQAPRGLIGGTNKRAPGTPARFSGSLLGGKAALTLSGVQPEDEAEYYCALWYSNLWVFGGGTKLTVL
notes: His6 tag at the C-terminus of the Fd
Turning to B1, the binding result in [1], in experiment [2] and in experiment [3] was “binds” each time.

B2: hu-1F3.8 Fab (Fab, V domains shown)
VH: B1 VH
VL: QAVVTQEPSLTVSPGGTVTLTCRSSTGAVTTSNYANWFQQKPGQAPRGLIGGTNKRAPGTPARFSGSLLGGKAALTLSGVQPEDEAEYYCALWYSNLWVFGGGTKLTVLG
notes: as for B1
For B2, the binding result in [4], in experiment [5] and in experiment [6] was “binds” in each case.

B3: hu-1F3.9 Fab (Fab, V domains shown)
VH: B1 VH with A99V
VL: B2 VL
notes: as for B1
On to B3, for which the binding result in [4], in experiment [5] and in experiment [6] was “binds” in each case.

B4: hu-1F3.6 Fab (Fab, V domains shown)
VH: B1 VH with A49S
VL: B2 VL
notes: as for B1
B4: the binding result in experiment [4], in experiment [5] and in experiment [6] was “binds” each time.

B5: hu-1F3.7 Fab (Fab, V domains shown)
VH: B1 VH with S30N, A49S
VL: B2 VL
notes: as for B1
Take B5: the binding result in [4], in experiment [5] and in experiment [6] was “binds” throughout.

B6: hu-1F3.2 Fab (Fab, V domains shown)
VH: B1 VH with S30N, A49S
VL: B1 VL
notes: as for B1
Take B6: the binding result in [1], in [2] and in [3] was “binds” each time.

B7: hu-1F3.1 Fab (Fab, V domains shown)
VH: B1 VH with A49S
VL: B1 VL
notes: His6 tag at the C-terminus of the Fd; No entry is named hu-1F3-1LC; also called hu-1F3 Fab; humanized anti CD3 antibody Fab, hu-1F3
On to B7, for which the binding result in [7] was “no binding”; in experiment [1], “binds”; in [2], “binds”; in experiment [3], “binds”.

B8: hu-1F3.5 Fab (Fab, V domains shown)
VH: B1 VH with S30N, A99V
VL: B1 VL
notes: His6 tag at the C-terminus of the Fd; also called huIF3.5
What is called EC50 (read off the curve) is the midpoint of the concentration-response curve. B8: the “EC50 (read off the curve)” value in experiment [1] was around 3 nM; in [2], around 2 nM; in experiment [3], around 2 nM.

B9: hu-1F3.10 Fab (Fab, V domains shown)
VH: B1 VH with S30N, A99V
VL: B2 VL
notes: as for B1
On to B9, for which the binding result in experiment [4], in experiment [5] and in [6] was “binds” each time.

B10: hu-1F3.4 Fab (Fab, V domains shown)
VH: B1 VH with A99V
VL: B1 VL
notes: as for B1
For the molecule B10, the binding result in experiment [2] was “binds”.

B11: EpCAM1.2-(H)-hu-1F3.1 Fab (bispecific antibody)
heavy chain Fd with anti-EpCAM scFv EpCAM1.2 at the N-terminus: EVQLVESGGGLVQPGGSLRLSCAASGFTFSNYWMSWVRQAPGKGLEWVANIKQDGSEKFYVDSVKGRFTISRDNAKNSLYLQMNSLRAEDMAVYYCARVGGAWELGYWGQGTLVTVSAGGGGSGGGGSGGGGSGAQSVLTQPPSVSGAPGQRVTISCTGSSSNIGSYYGVHWYQQLPGTAPKLLIYSDTNRPSGVPDRFSGSKSGTSASLAITGLQAEDEADYYCQSYDSSLSGRVFGGGTKMTVLGRAEVQLVESGGGLVQPGGSLRLSCAASGFTFSTYAMNWVRQAPGKGLEWVSRIRSKYNNYATYYADSVKDRFTISRDDSKNTLYLQMNSLRAEDTAVYYCARHGNFGNSYVSWFAYWGQGTMVTVSSASTKGPSVFPLAPCSRSTSESTAALGCLVKDYFPEPVTVSWNSGALTSGVHTFPAVLQSSGLYSLSSVVTVPSSNFGTQTYTCNVDHKPSNTKVDKTVGGGGSHHHHHHH
light chain, unfused: QAVVTQEPSLTVSPGGTVTLTCRSSTGAVTTSNYANWVQQKPGQAPRGLIGGTNKRAPGTPARFSGSLLGGKAALTLSGVQPEDEAEYYCALWYSNLWVFGGGTKLTVLGQPKAAPSVTLFPPSSEELQANKATLVCLISDFYPGAVTVAWKADSSPVKAGVETTTPSKQSNNKYAASSYLSLTPEQWKSHRSYSCQVTHEGSTVEKTVAPTECS
notes: member of group m20; also called EpCAM1.2-(H)-hu-1F3 Fab
B11: the binding result in experiment [8], in experiment [9] and in [10] was “binds” each time.

B12: OKT3 Fab (Fab, V domains shown)
VH: not shown
VL: QIVLTQSPAIMSASPGEKVTMTCSASSSVSYMNWYQQKSGTSPKRWIYDTSKLASGVPAHFRGSGSGTSYSLTISGMEAEDAATYYCQQWSSNPFTFGSGTKLEINR
notes: Anti-CD3 Fab; biotinylated in the assays
With B12, the binding result in experiment [11] is “no binding (tested: about 80 nM (last point; axis to 100 nM))”; in [12], “no binding (tested: about 80 nM (last point; axis to 100 nM))”; in [13], “no binding”.

B13: EpCAM1.2-(L)-hu-1F3.1 Fab (bispecific antibody)
heavy chain Fd (VH-CH1), unfused: EVQLVESGGGLVQPGGSLRLSCAASGFTFSTYAMNWVRQAPGKGLEWVSRIRSKYNNYATYYADSVKDRFTISRDDSKNTLYLQMNSLRAEDTAVYYCARHGNFGNSYVSWFAYWGQGTMVTVSSASTKGPSVFPLAPCSRSTSESTAALGCLVKDYFPEPVTVSWNSGALTSGVHTFPAVLQSSGLYSLSSVVTVPSSNFGTQTYTCNVDHKPSNTKVDKTVGGGGSHHHHHHH
light chain with anti-EpCAM scFv EpCAM1.2 at the N-terminus: EVQLVESGGGLVQPGGSLRLSCAASGFTFSNYWMSWVRQAPGKGLEWVANIKQDGSEKFYVDSVKGRFTISRDNAKNSLYLQMNSLRAEDMAVYYCARVGGAWELGYWGQGTLVTVSAGGGGSGGGGSGGGGSGAQSVLTQPPSVSGAPGQRVTISCTGSSSNIGSYYGVHWYQQLPGTAPKLLIYSDTNRPSGVPDRFSGSKSGTSASLAITGLQAEDEADYYCQSYDSSLSGRVFGGGTKLTVLGRAQAVVTQEPSLTVSPGGTVTLTCRSSTGAVTTSNYANWVQQKPGQAPRGLIGGTNKRAPGTPARFSGSLLGGKAALTLSGVQPEDEAEYYCALWYSNLWVFGGGTKLTVLGQPKAAPSVTLFPPSSEELQANKATLVCLISDFYPGAVTVAWKADSSPVKAGVETTTPSKQSNNKYAASSYLSLTPEQWKSHRSYSCQVTHEGSTVEKTVAPTECS
notes: member of group m20; also called EpCAM1.2-(L)-hu-1F3 Fab
Regarding B13, the binding result in [8], in [9] and in experiment [10] was “binds” throughout.

B14: EpCAM1.2-(H+L)-hu-1F3.1 Fab (bispecific antibody)
heavy chain Fd with anti-EpCAM scFv EpCAM1.2 at the N-terminus: B11 heavy chain Fd with anti-EpCAM scFv EpCAM1.2 at the N-terminus
light chain with anti-EpCAM scFv EpCAM1.2 at the N-terminus: B13 light chain with anti-EpCAM scFv EpCAM1.2 at the N-terminus
notes: member of group m20; also called EpCAM1.2-(H+L)-hu-1F3 Fab
For the molecule B14, the binding result in experiment [8], in [9] and in experiment [10] was “binds” each time.
